B1: ARC CARD domain (amino acids 1-95), wild type [human] / itself (parent)
chain: MGNAQERPSETIDRERKRLVETLQADSGLLLDALLARGVLTGPEYEALDALPDAERRVRRLLLLVQGKGEAACQELLRCAQRTAGAPDPAWDWQH

Variants of: B1
Assay: SEC-MALS
Conditions: with itself

Q: MGNAQERPSETIDRERKRLVETLQADSGLLLDALLARGVLTGPEYEALDALPDAERRVERLLLLVQGKGEAACQELLRCAQRTAGAPDPAWDWQH [chain 1 R59E] was tested. Which screen value did it give?
A: 12 kDa

Q: With MGNAQERPSETIDRERKRLVETLQADSGLLLDALLARGVLTGPEYEALRALPDAERRVERLLLLVQGKGEAACQELLRCAQRTAGAPDPAWDWQH [chain 1 D49R R59E] as the variant, how does the screen value read?
A: 12.8 kDa

Q: For MGNAQERPSETIDRERKRLVETLQADSGLLLDALLARGVLTGPEYEALDALPDAEERVERLLLLVQGKGEAACQELLRCAQRTAGAPDPAWDWQH [chain 1 R56E R59E], which screen value is on record?
A: 11.8 kDa

Q: Which screen value does the source give for MGNAQERPSETIDRERKRLVETLQADSGLLLDALLARGVLTGPEYEALRALPDAERRVRRLLLLVQGKGEAACQELLRCAQRTAGAPDPAWDWQH [chain 1 D49R] here?
A: 13 kDa

Q: MGNAQERPSETIDRERKRLVETLQADSGLLLDALLARGVLTGPEYEALDALPDAEERVRRLLLLVQGKGEAACQELLRCAQRTAGAPDPAWDWQH [chain 1 R56E] was tested. Which screen value did it give?
A: 13.2 kDa

— paper PMC4453921, “Crystal structure of caspase recruiting domain (CARD) of apoptosis repressor with CARD (ARC) and its implication in inhibition of apoptosis” (Scientific Reports, 2015)
